Data published in patent publication US20210395746, “COMPOSITIONS FOR […] TRANSCRIPTIONAL FEEDBACK CIRCUIT DISRUPTION AND USES […]” (The J. David Gladstone Institutes, a testamentary trust …, published 2021).

Tests used:
[1] = target: T1, IE86 (IE2) C-terminal fragment (Human cytomegalovirus) (UniProt Q6SWP7); conditions: FPLC Superose 6; 20 mM HEPES pH 7.4, 250 mM NaCl, 1 mM DTT; most efficient length
T1 sequence: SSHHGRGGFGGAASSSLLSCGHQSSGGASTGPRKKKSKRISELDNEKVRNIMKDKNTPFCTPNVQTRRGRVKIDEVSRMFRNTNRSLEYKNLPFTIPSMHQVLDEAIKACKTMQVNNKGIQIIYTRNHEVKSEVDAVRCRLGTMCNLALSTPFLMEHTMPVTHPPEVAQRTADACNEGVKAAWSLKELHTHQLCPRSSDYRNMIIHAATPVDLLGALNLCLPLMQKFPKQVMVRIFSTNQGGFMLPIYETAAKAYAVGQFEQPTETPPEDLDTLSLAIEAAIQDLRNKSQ

[2] = target: T2, IE86 (IE2) full-length, minimal feedback circuit or virus-encoded (Human cytomegalovirus, UniProt P19893 P19893:1-580); assay: cell_activity; CMV C-DOT dose-response in 96-well format; indirect, decoy effect; conditions: tags: MIEP-IE86-IRES-GFP reporter or IE86-YFP virus; chain copies: 2
T2 sequence: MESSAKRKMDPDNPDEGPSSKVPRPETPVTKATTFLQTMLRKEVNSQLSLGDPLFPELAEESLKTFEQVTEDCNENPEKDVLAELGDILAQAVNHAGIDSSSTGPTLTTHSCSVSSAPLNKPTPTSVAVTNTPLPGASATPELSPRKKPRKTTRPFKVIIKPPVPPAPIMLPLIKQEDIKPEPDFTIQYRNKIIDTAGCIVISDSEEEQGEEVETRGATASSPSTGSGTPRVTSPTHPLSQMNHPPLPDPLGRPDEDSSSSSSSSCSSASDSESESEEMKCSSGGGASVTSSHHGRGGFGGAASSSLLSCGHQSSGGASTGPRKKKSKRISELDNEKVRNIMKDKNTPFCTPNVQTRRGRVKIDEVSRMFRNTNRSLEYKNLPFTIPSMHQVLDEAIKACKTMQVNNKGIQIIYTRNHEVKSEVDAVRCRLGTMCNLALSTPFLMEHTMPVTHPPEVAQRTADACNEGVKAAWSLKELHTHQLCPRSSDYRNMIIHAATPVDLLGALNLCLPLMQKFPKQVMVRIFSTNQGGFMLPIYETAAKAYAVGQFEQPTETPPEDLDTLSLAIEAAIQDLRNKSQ

IE175 (ICP4) = target: T3, IE175 (ICP4) (Herpes simplex virus type 1, UniProt P08392 P08392:1-1298); assay: cell_activity; HSV-1 C-DOT dose-response in 96-well format; indirect, decoy effect; conditions: tags: YFP fusion, strain 17syn+; chain copies: 2
T3 sequence: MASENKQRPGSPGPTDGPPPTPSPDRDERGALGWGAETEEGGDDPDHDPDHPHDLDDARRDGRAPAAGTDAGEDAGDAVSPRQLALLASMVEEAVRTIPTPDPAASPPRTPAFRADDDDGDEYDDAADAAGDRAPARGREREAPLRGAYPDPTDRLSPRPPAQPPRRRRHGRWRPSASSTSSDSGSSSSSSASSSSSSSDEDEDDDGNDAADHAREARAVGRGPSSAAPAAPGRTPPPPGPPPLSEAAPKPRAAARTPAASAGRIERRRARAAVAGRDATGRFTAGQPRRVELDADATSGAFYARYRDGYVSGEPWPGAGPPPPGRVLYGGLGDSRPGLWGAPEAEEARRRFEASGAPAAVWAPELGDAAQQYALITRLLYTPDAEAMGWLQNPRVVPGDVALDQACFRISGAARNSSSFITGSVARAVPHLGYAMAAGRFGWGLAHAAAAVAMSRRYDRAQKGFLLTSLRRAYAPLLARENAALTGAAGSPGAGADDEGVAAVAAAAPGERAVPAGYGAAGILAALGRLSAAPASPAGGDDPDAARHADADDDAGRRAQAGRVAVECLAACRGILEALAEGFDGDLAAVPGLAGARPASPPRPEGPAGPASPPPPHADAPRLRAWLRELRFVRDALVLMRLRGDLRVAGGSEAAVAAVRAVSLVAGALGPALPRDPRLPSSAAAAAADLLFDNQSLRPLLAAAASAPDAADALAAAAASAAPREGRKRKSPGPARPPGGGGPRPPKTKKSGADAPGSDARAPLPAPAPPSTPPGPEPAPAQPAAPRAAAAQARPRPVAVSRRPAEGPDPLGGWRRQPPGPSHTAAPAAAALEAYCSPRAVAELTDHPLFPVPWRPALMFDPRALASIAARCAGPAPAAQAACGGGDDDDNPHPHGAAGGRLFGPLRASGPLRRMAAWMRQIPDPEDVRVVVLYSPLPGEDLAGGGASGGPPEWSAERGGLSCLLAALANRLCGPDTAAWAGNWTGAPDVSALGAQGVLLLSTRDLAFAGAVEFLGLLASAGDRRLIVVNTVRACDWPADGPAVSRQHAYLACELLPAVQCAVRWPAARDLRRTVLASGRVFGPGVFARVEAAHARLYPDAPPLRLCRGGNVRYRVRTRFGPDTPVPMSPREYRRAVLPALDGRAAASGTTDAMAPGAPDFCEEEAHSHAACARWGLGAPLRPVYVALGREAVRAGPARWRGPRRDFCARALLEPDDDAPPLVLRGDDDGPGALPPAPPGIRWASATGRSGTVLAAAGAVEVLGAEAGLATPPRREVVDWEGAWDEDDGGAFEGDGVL

Molecule: GACAGATCGTTTAGTGAACCGTACACGA (double strand) [28 bp crs DNA]
- binding signal (% protein in complex fraction) [1]: 98

B1: C-DOTC (dsDNA)
DNA 1: GACAGATCGTTTAGTGAACCGTACACGA
DNA 2: TCGTGTACGGTTCACTAAACGATCTGTC
modifications: PS at bonds marked * G*ACAGATCGTT*TAGTGAACC*GTACACG*A / T*CGTGTAC*GGTTCACTA*AACGATCTGT*C
- IC50 [2]: < 1 nM

B2: C-DOTH (dsDNA)
DNA 1: CCGAGGACGCCCCGATCGTCCACACGGAG
DNA 2: CTCCGTGTGGACGATCGGGGCGTCCTCGG
modifications: PS at bonds marked * CCG*AGGAC*GCCCCGATC*GTCCACACG*GAG / CTC*CGTGTGGAC*GATCGGGGC*GTCCT*CGG
- IC50 (IE175 (ICP4)): < 1 nM
